Laboratory results as given in PMC11187536.

Tests used:
[1] = target: soluble variant surface glycoprotein (sVSG) MITat1.2 (Trypanosoma brucei (endogenous in cell line 13-90)); assay: SEC; Superdex 200 Increase 10/300 GL, 50 mM HEPES pH 7.4, 150 mM NaCl, 100 µl sample at 5 mg/ml, 1 ml/min; self-association, dimer
[2] = target: soluble variant surface glycoprotein (sVSG) MITat1.2 (Trypanosoma brucei (endogenous in cell line 13-90)); assay: SEC; Superdex 200 Increase 10/300 GL, 20 mM sodium acetate pH 5.2, 150 mM NaCl, 100 µl sample at 5 mg/ml, 1 ml/min; self-association, dimer

**Q.** For “soluble variant surface glycoprotein (sVSG) MITat1.2 (natural protein)”, which stoichiometry N [1] is on record?
**A.** 2

**Q.** And the stoichiometry N [2]?
**A.** 2
